# Laboratory results published in patent US20200057058A1 (MIT, published 2020).
# B1: 3xSP77.6k thin film (3x rcSso7d.SA-PNIPAM conjugate, PNIPAM Mn 77.6 kDa) (designed binder)
# chain: MGSSHHHHHHSSGLVPRGSHMCATVKFTYQGEEKQVDISKIKIVARDGQYIDFKYDEGGGAYGYGWVSEKDAPKELLQMLEKQGGGGSGGGGSMATVKFTYQGEEKQVDISKIKIVARDGQYIDFKYDEGGGAYGYGWVSEKDAPKELLQMLEKQGGGGSGGGGSMATVKFTYQGEEKQVDISKIKIVARDGQYIDFKYDEGGGAYGYGWVSEKDAPKELLQMLEKQGG
# modifications: maleimide end-functionalized PNIPAM (Mn 77.6 kDa) on the N-terminal Cys; film lightly crosslinked with glutaraldehyde
# B2: 3xSP56.1k thin film (3x rcSso7d.SA-PNIPAM conjugate, PNIPAM Mn 56.1 kDa) (designed binder)
# chain: B1 chain
# modifications: maleimide end-functionalized PNIPAM (Mn 56.1 kDa) on the N-terminal Cys; film lightly crosslinked with glutaraldehyde
# Tests used:
# streptavidin [1] = target: T1, streptavidin (UniProt P22629 37-163, limits assumed); assay: fluorescent binding curve, labeled SA in 50% blood serum, 4 h
# T1 construct: It was used without a stated label in the sandwich assays; also called SA
# Protocol: (§1) The binding function of rcSso7d.SA oligomer-PNIPAM thin films was measured using fluorescently-labeled monomeric streptavidin (mSA2) and fluorescently-labeled streptavidin (SA). Details for the expression, purification, and fluorescent labeling of mSA2 are provided below. Samples were prepared by serial dilution of SA or mSA2 in PBS (pH 7.4), human urine (diluted to 50% v/v in PBS, pH 7.4), or blood serum (obtained as the supernatant by centrifuging whole blood at 1500×g for 10 minutes, then diluted to 50% v/v in PBS, pH 7.4). 0.5 μL drops of solutions containing serially diluted fluorescent mSA2 and fluorescent SA samples in PBS (pH 7.4) were gently applied to the surface of each bioconjugate thin film. […] Fluorescence microscopy images were acquired at 4× magnification using a Cy5 filter set and exposure time of 5000 ms on an Olympus IX-81 inverted fluorescence microscope with an AxioCam HRC CCD camera. Fluorescent intensity was calculated using ImageJ software⁶⁷ by determining the average fluorescent signal in a rectangular area of the fluorescent image free of defects and occupying no less than half of the full sample application area.
# (§2) To evaluate how the apparent size-based diffusion properties translated to biosensing capabilities, binding curves were measured using SA and mSA2 solutions in buffer. […]
# streptavidin [2] = target: T1, streptavidin; assay: fluorescent binding curve fits, labeled SA in PBS, 30 min exposure
# Protocol: as §1, §2
# streptavidin [3] = target: T1, streptavidin; assay: sandwich assay: SA in 50% urine, biotin-HRP/TMB detection
# Protocol: (§3) Each well was submerged in 1 mL of 1% BSA in Milli-Q water, and the 12-well plate was incubated at 37° C. for 30 minutes. The wells were rinsed twice by adding 2 mL of Milli-Q water and gently shaking the well plate at 70 rpm for 5 minutes. 1 mL of streptavidin diluted in PBS, urine, or blood serum (prepared as described in the Fluorescent Assays section) containing 0.1% BSA was then added to each well, and the well plate was shaken at 70 rpm for 4 hours at room temperature. Wells were rinsed twice with 2 mL of Milli-Q water then twice with 2 mL of 0.1% BSA in Milli-Q water by shaking at 70 rpm for 5 minutes. After rinsing, wells were submerged in 1 mL of 200 ng/mL biotin-HRP in Milli-Q water containing 0.1% BSA, and the well plate was shaken at 70 rpm for 1 hour at room temperature. Wells were then rinsed with water and 0.1% BSA as described previously. 1 mL of solution from a Pierce TMB substrate kit (Thermo Fisher Scientific) was added to each well, and the well plate was shaken vigorously at 125 rpm for 15 minutes at room temperature. 1 mL of 2M H2SO4 was added to each well, and the absorbance at 450 nm was read using a Tecan Infinite M200 PRO plate reader.
# (§4) The general procedure for this proof-of-concept experiment is diagrammed in FIG. 28. Films were first exposed to SA solutions and rinsed to remove unbound analyte. Taking advantage of the strong interaction between SA and biotin, thin films were then submerged in a solution of biotinylated horseradish peroxidase (biotin-HRP). Bound SA was detected colorimetrically through the HRP-mediated oxidation of 3,3′,5,5′-tetramethylbenzidine (TMB). Attempts to perform this assay using mSA2 as the analyte were unsuccessful, even when run on an rcSso7d.SA monolayer.
# streptavidin [4] = target: T1, streptavidin; assay: sandwich assay, SA in 50% blood serum, detection with biotin-HRP and TMB
# Protocol: as §3, §4
# streptavidin [5] = target: T1, streptavidin; assay: fluorescent binding curve, labeled SA in 50% urine, 4 h; quadratic fit
# streptavidin [6] = target: T1, streptavidin; assay: sandwich assay: SA in 50% blood serum, biotin-HRP/TMB detection
# Protocol: as §3, §4
# [7] = target: monomeric streptavidin variant mSA2; assay: fluorescent binding curve, labeled mSA2 in 50% urine, 4 h; quadratic fit
# [8] = target: monomeric streptavidin variant mSA2; assay: fluorescent binding curves, labeled mSA2 in 50% urine or 50% blood serum, 4 h
# streptavidin [9] = target: T1, streptavidin; assay: fluorescent binding curve, labeled SA in PBS, 4 h exposure; quadratic fit
# streptavidin [10] = target: T1, streptavidin; assay: fluorescent binding curve, labeled SA in 50% blood serum, 4 h; quadratic fit
# streptavidin [11] = target: T1, streptavidin; assay: sandwich assay, SA in PBS, detection with biotin-HRP and TMB, absorbance at 450 nm
# Protocol: as §3
# The general procedure for this proof-of-concept experiment is diagrammed in FIG. 28. […] Bound SA was detected colorimetrically through the HRP-mediated oxidation of 3,3′,5,5′-tetramethylbenzidine (TMB). […]
# [12] = target: monomeric streptavidin variant mSA2; assay: fluorescent binding curve, labeled mSA2 in 50% blood serum, 4 h; quadratic fit
# streptavidin [13] = target: T1, streptavidin; assay: fluorescent binding assay, labeled SA in 50% urine on thin film, 4 h exposure
# [14] = target: monomeric streptavidin variant mSA2; assay: fluorescent binding assay, labeled mSA2 in 50% urine on thin film, 4 h exposure
# Protocol: as §1, with “film. Films were incubated in a sealed chamber saturated with water vapor at room temperature to prevent to prevent drying of the applied fluorescent samples.” for “film.”
# (§5) To evaluate how the apparent size-based diffusion properties translated to biosensing capabilities, binding curves were measured using SA and mSA2 solutions in buffer. Binding curves were fit with a quadratic model that is a function of three parameters: the average MFI per binding event a, the total concentration of binding sites [P]T, and the apparent dissociation constant K_{d,app} describing the binding equilibrium between analyte and binding sites within the thin film.
# streptavidin [15] = target: T1, streptavidin; assay: fluorescent binding assay, labeled SA in 50% blood serum on thin film, 4 h exposure
# streptavidin [16] = target: T1, streptavidin; assay: apparent Kd (Kd,app); fluorescent binding curve, labeled SA in 50% urine, 4 h; quadratic fit
# [17] = target: monomeric streptavidin variant mSA2; assay: fluorescent binding assay, labeled mSA2 in 50% blood serum on thin film, 4 h exposure
# Protocol: as §1, with “film. Films were incubated in a sealed chamber saturated with water vapor at room temperature to prevent to prevent drying of the applied fluorescent samples.” for “film.”
# as §5
# [18] = target: monomeric streptavidin variant mSA2; assay: apparent Kd (Kd,app); fluorescent binding curve, labeled mSA2 in 50% urine, 4 h; quadratic fit
# streptavidin [19] = target: T1, streptavidin; assay: apparent Kd (Kd,app); fluorescent binding curve, labeled SA in PBS, 4 h exposure; quadratic fit
# streptavidin [20] = target: T1, streptavidin; assay: apparent Kd (Kd,app); fluorescent binding curve, labeled SA in PBS, 8 h exposure; quadratic fit
# streptavidin [21] = target: T1, streptavidin; assay: apparent Kd (Kd,app); fluorescent binding curve, labeled SA in PBS, 0.5 h exposure; quadratic fit
# streptavidin [22] = target: T1, streptavidin; assay: apparent Kd (Kd,app); fluorescent binding curve, labeled SA in 50% blood serum, 4 h; quadratic fit
# [23] = target: monomeric streptavidin variant mSA2; assay: apparent Kd (Kd,app); fluorescent binding curve, labeled mSA2 in 50% blood serum, 4 h; quadratic fit
# BSA = target: T2, BSA (bovine, UniProt P02769); assay: fluorescence of Alexa Fluor 488-labeled BSA retained in a 144 nm 3xSP77.6k thin film after rinsing with water for 0-30 s
# T2 construct: full protein, fluorescently labeled; non-specific retention control; also called BSA labeled with Alexa Fluor 488
# [24] = target: monomeric streptavidin variant mSA2; assay: fluorescent binding curve fits, labeled mSA2 in PBS
# Protocol: The binding function of rcSso7d.SA oligomer-PNIPAM thin films was measured using fluorescently-labeled monomeric streptavidin (mSA2) and fluorescently-labeled streptavidin (SA). Details for the expression, purification, and fluorescent labeling of mSA2 are provided below. Samples were prepared by serial dilution of SA or mSA2 in PBS (pH 7.4), human urine (diluted to 50% v/v in PBS, pH 7.4), or blood serum (obtained as the supernatant by centrifuging whole blood at 1500×g for 10 minutes, then diluted to 50% v/v in PBS, pH 7.4). […] After 1 hour, films were thoroughly rinsed with water for 10 seconds (a time determined to be sufficient to remove unbound molecules from the film, see FIG. 33, dried under filtered airflow, and immediately analyzed for fluorescent signal. Fluorescence microscopy images were acquired at 4× magnification using a Cy5 filter set and exposure time of 5000 ms on an Olympus IX-81 inverted fluorescence microscope with an AxioCam HRC CCD camera. Fluorescent intensity was calculated using ImageJ software⁶⁷ by determining the average fluorescent signal in a rectangular area of the fluorescent image free of defects and occupying no less than half of the full sample application area.
# as §2
# [25] = target: monomeric streptavidin variant mSA2; assay: fluorescent binding curve, labeled mSA2 in PBS, 4 h exposure
# Protocol: as §1, §2
# [26] = target: monomeric streptavidin variant mSA2; assay: fluorescent binding curve, labeled mSA2 in PBS, 4 h exposure; quadratic fit
# Protocol: as §1, with “film. Films were incubated in a sealed chamber saturated with water vapor at room temperature to prevent to prevent drying of the applied fluorescent samples.” for “film.”
# as §5
# [27] = target: monomeric streptavidin variant mSA2; assay: apparent Kd (Kd,app); fluorescent binding curve, labeled mSA2 in PBS, 4 h exposure; quadratic fit
# Protocol: as §1, with “film. Films were incubated in a sealed chamber saturated with water vapor at room temperature to prevent to prevent drying of the applied fluorescent samples.” for “film.”
# as §5
# [28] = target: monomeric streptavidin variant mSA2; assay: apparent Kd (Kd,app); fluorescent binding curve, labeled mSA2 in PBS, 8 h exposure; quadratic fit
# Protocol: as §1, §2
# [29] = target: monomeric streptavidin variant mSA2; assay: apparent Kd (Kd,app); fluorescent binding curve, labeled mSA2 in PBS, 0.5 h exposure; quadratic fit
# T1 sequence (P22629 37-163 limits assumed): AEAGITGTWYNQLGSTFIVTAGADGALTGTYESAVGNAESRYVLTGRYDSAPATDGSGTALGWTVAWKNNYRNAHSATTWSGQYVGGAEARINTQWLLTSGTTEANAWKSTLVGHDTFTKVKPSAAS
# T2 sequence (P02769 25-607 limits assumed): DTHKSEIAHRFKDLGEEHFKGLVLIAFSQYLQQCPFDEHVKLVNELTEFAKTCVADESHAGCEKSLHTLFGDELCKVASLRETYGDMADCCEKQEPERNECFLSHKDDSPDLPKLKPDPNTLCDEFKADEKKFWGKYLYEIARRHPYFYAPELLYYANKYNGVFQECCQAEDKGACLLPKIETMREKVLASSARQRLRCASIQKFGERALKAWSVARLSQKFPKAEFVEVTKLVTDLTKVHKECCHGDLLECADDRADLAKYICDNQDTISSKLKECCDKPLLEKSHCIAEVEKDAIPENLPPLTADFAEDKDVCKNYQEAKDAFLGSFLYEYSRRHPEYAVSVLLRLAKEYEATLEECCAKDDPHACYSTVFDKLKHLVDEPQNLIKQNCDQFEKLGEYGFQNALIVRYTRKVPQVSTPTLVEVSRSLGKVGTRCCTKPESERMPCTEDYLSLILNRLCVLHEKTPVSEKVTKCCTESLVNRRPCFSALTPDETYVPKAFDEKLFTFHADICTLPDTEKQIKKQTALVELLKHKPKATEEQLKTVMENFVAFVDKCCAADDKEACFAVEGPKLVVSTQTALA
binder,measurement,setting,value
B1,reduction in LOD relative to rcSso7d.SA monolayer,streptavidin [1],~2 fold
same,binding sites accessed relative to the 3×SP9.6k film,streptavidin [2],~4 fold
same,LOD,streptavidin [3],33 nM
same,LOD relative to rcSso7d.SA monolayer,streptavidin [4],2 fold
same,[P]T (total concentration of binding sites),streptavidin [5],0.3 nM
same,LOD,streptavidin [6],85 nM
same,[P]T (total concentration of binding sites),[7],15 nM
same,LOD relative to rcSso7d.SA monolayer,[8],2 orders of magnitude lower
same,[P]T (total concentration of binding sites),streptavidin [9],0.41 nM
same,[P]T (total concentration of binding sites),streptavidin [10],0.6 nM
same,LOD relative to rcSso7d.SA monolayer,streptavidin [11],~2 fold
same,[P]T (total concentration of binding sites),[12],4.5 nM
same,Limit of Detection,streptavidin [13],800 nM
same,Limit of Detection,[14],14 nM
same,Limit of Detection,streptavidin [15],420 nM
same,Kd,streptavidin [16],50 µM
same,Limit of Detection,[17],56 nM
same,Kd,[18],31 µM
same,Kd,streptavidin [19],17 µM
same,Kd,streptavidin [20],15 µM
same,Kd,streptavidin [21],80 µM
same,Kd,streptavidin [22],40 µM
same,Kd,[23],35 µM
same,binding result,BSA,no binding (tested: 10 µM)
B2,accessible binding sites relative to the 3×SP9.6k film,[24],> 4 fold
same,reduction in LOD relative to rcSso7d.SA monolayer,[25],~4 fold
same,[P]T (total concentration of binding sites),[26],3.2 nM
same,Kd,[27],16 µM
same,Kd,[28],13 µM
same,Kd,[29],33 µM
